Test results as given in FireProtDB (doi:10.1016/j.bpc.2007.01.004).
Values joined by “and” are separate entries in the source; they are usually repeats but may differ in a detail not shown here. Equal values may be shown once.

Settings: Alicyclobacillus acidocaldarius subsp. acidocaldarius, pH 7.5, Phosphate 20 mM, reversible: Yes; for denaturant midpoint (higher = more stable): 20 °C

With wild type (from UniProt Q7SIG1) the “denaturant midpoint (higher = more stable)” value (“denaturant midpoint” for short) (GdnHCl, CD) was 1.9 M and 2.2 M, the “denaturant midpoint” value (GdnHCl, Fluorescence) was 1.9 M and 2 M and 2.2 M and the “denaturant midpoint” value (Urea, CD) was 5.9 M and 4.6 M. The Tm (Thermal, CD) was 91 °C and 86 °C, the “unfolding enthalpy (van 't Hoff)” value (Thermal, CD) was 105 kcal/mol and 122 kcal/mol and 62.1 kcal/mol and the Tm (Thermal, DSC) was 86 °C. For the same substance, the “heat capacity change of unfolding” value (Thermal, DSC) was 3.82 kcal/mol/K, the “unfolding enthalpy (calorimetric)” value (Thermal, DSC) was 265 kcal/mol and 179 kcal/mol and the “unfolding enthalpy (van 't Hoff)” value (Thermal, DSC) was 127 kcal/mol and 83.7 kcal/mol. For the same substance, the “heat capacity change of unfolding” value (Thermal, DSC, transition: 3) was 1.67 kcal/mol/K and 2.15 kcal/mol/K.
